From patent publication US20170296640A1 (IMMATICS BIOTECHNOLOGIES, published 2017)
No end group written: not given here.

What follows are binders tested against T1, HLA-A*02:01 (peptide-receptive MHC class I monomer after UV cleavage of the UV-sensitive ligand) (human) (assay: UV ligand-exchange ELISA; exchange yield grade (+ >=10%, ++ >=20%, +++ >=50%, ++++ >=75%)).
T1 construct: MHC monomers loaded by UV-ligand exchange and captured on streptavidin plates
How it was run: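 Binding capacity is expressed as the yield of UV-mediated ligand exchange, reflecting how well each peptide stabilizes peptide-receptive MHC. Stabilized complexes are read out by anti-β2m HRP ELISA (450 nm) after streptavidin capture, with refolded MLA-001 monomer standards for quantitation.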

peptide exchange yield [%] | Binder
20 to 50 | IIAEGIPEA [IIAEGIPEA (SEQ ID NO: 227)]
50 to 75 | AVLGFSFRL [AVLGFSFRL (SEQ ID NO: 24)]
20 to 50 | GVIDPVPEV [GVIDPVPEV (SEQ ID NO: 226)]
50 to 75 | ILEPFLPAV [ILEPFLPAV (SEQ ID NO: 244)]
20 to 50 | FIPDFIPAV [FIPDFIPAV (SEQ ID NO: 241)]
50 to 75 | AQFGAVLEV [AQFGAVLEV (SEQ ID NO: 217)]
20 to 50 | NLQRTVVTV [NLQRTVVTV (SEQ ID NO: 234)]
50 to 75 | YLDRLIPQA [YLDRLIPQA (SEQ ID NO: 237)]
≥ 75 | SLFDGFFLTA [SLFDGFFLTA (SEQ ID NO: 236)]
50 to 75 | VLYELFTYI [VLYELFTYI (SEQ ID NO: 251)]
50 to 75 | FLNQESFDL [FLNQESFDL (SEQ ID NO: 27)]
≥ 75 | RLDEAFDFV [RLDEAFDFV (SEQ ID NO: 260)]
50 to 75 | YQYGAVVTL [YQYGAVVTL (SEQ ID NO: 238)]
20 to 50 | FLQDIPDGLFL [FLQDIPDGLFL (SEQ ID NO: 223)]
≥ 75 | VLLESLVEI [VLLESLVEI (SEQ ID NO: 249)]
50 to 75 | MLEVHIPSV [MLEVHIPSV (SEQ ID NO: 233)]
50 to 75 | KVLEMETTV [KVLEMETTV (SEQ ID NO: 247)]
≥ 75 | GLPDLDIYL [GLPDLDIYL (SEQ ID NO: 243)]
≥ 75 | FLAPDNSLLLA [FLAPDNSLLLA (SEQ ID NO: 221)]
50 to 75 | ALDQFLEGI [ALDQFLEGI (SEQ ID NO: 218)]
50 to 75 | KLPVPLESV [KLPVPLESV (SEQ ID NO: 246)]
50 to 75 | FLIETGTLL [FLIETGTLL (SEQ ID NO: 222)]
50 to 75 | VLIDDTVLL [VLIDDTVLL (SEQ ID NO: 239)]
20 to 50 | FLSPLLPLL [FLSPLLPLL (SEQ ID NO: 224)]
20 to 50 | IMDDDSYGV [IMDDDSYGV (SEQ ID NO: 230)]
20 to 50 | IIAEYLSYV [IIAEYLSYV (SEQ ID NO: 228)]
20 to 50 | KVMEGTVAA [KVMEGTVAA (SEQ ID NO: 232)]

peptide exchange yield [%] | Binder
50 to 75 | VLTNVGAAL [VLTNVGAAL (SEQ ID NO: 250)]
≥ 75 | YSDDDVPSV [YSDDDVPSV (SEQ ID NO: 253)]
50 to 75 | IVMGAIPSV [IVMGAIPSV (SEQ ID NO: 231)]
≥ 75 | GMWNPNAPVFL [GMWNPNAPVFL (SEQ ID NO: 255)]
≥ 75 | TVLDGLEFKV [TVLDGLEFKV (SEQ ID NO: 259)]
50 to 75 | KLIQLPVVYV [KLIQLPVVYV (SEQ ID NO: 245)]
20 to 50 | ALLELENSV [ALLELENSV (SEQ ID NO: 219)]
50 to 75 | YLGDLIMAL [YLGDLIMAL (SEQ ID NO: 252)]
≥ 75 | ALVEDIINL [ALVEDIINL (SEQ ID NO: 23)]
50 to 75 | SLDVYELFL [SLDVYELFL (SEQ ID NO: 235)]
50 to 75 | ALVPTPALFYL [ALVPTPALFYL (SEQ ID NO: 240)]
≥ 75 | GILDFXVFL (not fully specified) [GILDFZVFL (SEQ ID NO: 242)]
≥ 75 | QLTEMLPSI [QLTEMLPSI (SEQ ID NO: 266)]
50 to 75 | RIYPFLLMV [RIYPFLLMV (SEQ ID NO: 258)]
50 to 75 | GLMDNEIKV [GLMDNEIKV (SEQ ID NO: 263)]
≥ 75 | ILWHFVASL [ILWHFVASL (SEQ ID NO: 265)]
50 to 75 | ALQETPPQV [ALQETPPQV (SEQ ID NO: 256)]
50 to 75 | NLLEQFILL [NLLEQFILL (SEQ ID NO: 248)]
50 to 75 | FLGSFIDHV [FLGSFIDHV (SEQ ID NO: 26)]
≥ 75 | FLYSETWNI [FLYSETWNI (SEQ ID NO: 254)]
≥ 75 | FLPETRIMTSV [FLPETRIMTSV (SEQ ID NO: 261)]
≥ 75 | LMGPVVHEV [LMGPVVHEV (SEQ ID NO: 262)]
≥ 75 | ILSPWGAEV [ILSPWGAEV (SEQ ID NO: 229)]
50 to 75 | ILTGTPPGV [ILTGTPPGV (SEQ ID NO: 264)]
≥ 75 | FLQEWEVYA [FLQEWEVYA (SEQ ID NO: 257)]
50 to 75 | FLDTSNQHLL [FLDTSNQHLL (SEQ ID NO: 25)]
20 to 50 | FLAEAPTAL [FLAEAPTAL (SEQ ID NO: 220)]
